Reference: patent publication US20210009963A1 (LYSENTECH, published 2021)

Biological target: T1, wild type bacteriophage T7 (bacteriophage T7, UniProt P19726 1-345; P19727 1-398)
T1 construct: Whole phage particle without a homing peptide, used as the control; also called WT T7; wild type T7
T1 sequence 1: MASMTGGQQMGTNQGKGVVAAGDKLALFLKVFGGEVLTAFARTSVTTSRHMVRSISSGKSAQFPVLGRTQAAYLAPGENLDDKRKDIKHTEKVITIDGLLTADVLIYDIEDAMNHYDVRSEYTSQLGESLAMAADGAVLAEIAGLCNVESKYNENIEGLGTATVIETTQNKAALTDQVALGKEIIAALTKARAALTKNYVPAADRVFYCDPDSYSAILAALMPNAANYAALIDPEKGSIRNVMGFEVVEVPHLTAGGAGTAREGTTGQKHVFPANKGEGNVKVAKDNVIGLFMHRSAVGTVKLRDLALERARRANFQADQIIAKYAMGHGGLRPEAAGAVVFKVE
T1 sequence 2: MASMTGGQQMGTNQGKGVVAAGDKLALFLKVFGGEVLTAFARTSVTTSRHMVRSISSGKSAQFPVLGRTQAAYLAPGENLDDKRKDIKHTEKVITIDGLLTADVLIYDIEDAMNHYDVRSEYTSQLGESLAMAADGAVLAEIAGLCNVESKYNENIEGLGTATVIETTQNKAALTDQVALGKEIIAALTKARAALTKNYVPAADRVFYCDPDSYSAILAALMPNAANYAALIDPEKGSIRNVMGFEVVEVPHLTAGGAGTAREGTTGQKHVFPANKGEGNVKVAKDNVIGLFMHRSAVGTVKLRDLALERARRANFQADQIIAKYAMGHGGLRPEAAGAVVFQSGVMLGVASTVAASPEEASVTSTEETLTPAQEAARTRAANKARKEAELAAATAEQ
Test: confocal fluorescence microscopy of B16F10 cells, anti-T7 antibody staining after washing

B1: grp78 on B16F10 mouse melanoma cells (receptor)
chain: not shown
notes: whole, on cells; The assay was done on whole B16F10 cells; also called receptor for pep42; B16F10 cells
Q: Does B1 bind?
A: no binding (tested: 1×10^7 PFU of phages)
